Test results published in patent US20140364335A1, “METHOD FOR SCREENING FOR NRF1 REGULATOR” (Mochida Pharmaceutical Co., Ltd., priority 2012, published 2014).
Where a SMILES comes first, the peptide text is derived from it. The star is where a group is joined. Cbz = O=C(OCc1ccccc1)*

B1: Lipin1 intron ARE (dsDNA)
DNA 1: CACACCCTGCCCAGAGGCACACTTGCTGAGTCAGCACCCCGG
DNA 2: CCGGGGTGCTGACTCAGCAAGTGTGCCTCTGGGCAGGGTGTG
B2: Lipin1 promoter ARE (dsDNA)
DNA 1: ACGCTCCTGCCGCTGAGCTGTGACTCAGCCAGAGAACTGAG
DNA 2: CTCAGTTCTCTGGCTGAGTCACAGCTCAGCGGCAGGAGCGT
B3: PGC-1beta intron ARE (dsDNA)
DNA 1: TTGATAGTGAGGGGAACATGCTGACTCAGCAGCTCCGAATAA
DNA 2: TTATTCGGAGCTGCTGAGTCAGCATGTTCCCCTCACTATCAA

Assays:
[1] = tested on: CNC-bZip domain-deficient mouse Nrf1 and luciferase fusion protein (mNrf1ΔCNC-bZip-Luc); assay: Luciferase activity in Hepa1 cell line stably expressing CNC-bZip domain-deficient mouse Nrf1-luciferase fusion protein; assay type: cell-based; settings: mNrf1ΔCNC-bZip-Luc stable Hepa1 cell lines, 10 μM MG-132, 4 hours, vs DMSO
Experimental: (§1) Cloning of mouse Nrf1 cDNA was performed using a method known in the art (Zhang et al., Biochem. J. 399: 373-385. (2006)). An expression vector of full-length mouse Nrf1 and luciferase fusion protein (mNrf1-Luc) was prepared by ligating the sequence, which was amplified by the following primers: 5′-TAATACGACTCACTATAGGG-3′ (SEQ ID NO: 21) and 5′-CTTTATGTTTTTGGCGTCTTCCTTCCTCCGGTCCTTTG-3′ (SEQ ID NO: 22) using mouse Nrf1 cDNA sequence as a template, and the sequence, which was amplified by the following primers: 5′-CAAAGGACCGGAGGAAGGAAGACGCCAAAAACATAAAG-3′ (SEQ ID NO: 23) and 5′-GACTCTAGAATTACACGGCG-3′ (SEQ ID NO: 24) using pGL3-basic vector (Promega) as a template; and cloning the resulting sequence at a KpnI/XbaI site of pcDNA3.1/V5His B plasmid (Invitrogen). […]
(§2) Cells of each cell line were seeded at a density of 5×10^4 cells per well in a 24-well plate, cultured overnight and treated with a solvent control, DMSO or 10 μM MG-132 (Peptide Institute) for 4 hours. Thereafter, the firefly luciferase activity was measured using dual luciferase kit (Promega) and a luminometer (Berthold).

[2] = tested on: full-length mouse Nrf1 and luciferase fusion protein (mNrf1-Luc); assay: Luciferase activity in Hepa1 cell line stably expressing mouse Nrf1-luciferase fusion protein (Nrf1 stabilization assay); assay type: cell-based; settings: mNrf1-Luc stable Hepa1 cell lines, 10 μM MG-132, 4 hours, vs DMSO
Experimental: as §1, §2

[3] = target: T1, Nrf1 CT (G341-K741)/MafG 1-123 heterodimer (Mus musculus, UniProt Q61985;O54790 Q61985:341-741,O54790:1-123); assay: EMSA; room temperature 20 min; probe boundaries in FIG. 6E may differ from the reporter insert; settings: tags: 6xHis on each; E. coli; label: 5' biotin (EMSA)
T1 sequence (Q61985 341-741, chain 1 of 2): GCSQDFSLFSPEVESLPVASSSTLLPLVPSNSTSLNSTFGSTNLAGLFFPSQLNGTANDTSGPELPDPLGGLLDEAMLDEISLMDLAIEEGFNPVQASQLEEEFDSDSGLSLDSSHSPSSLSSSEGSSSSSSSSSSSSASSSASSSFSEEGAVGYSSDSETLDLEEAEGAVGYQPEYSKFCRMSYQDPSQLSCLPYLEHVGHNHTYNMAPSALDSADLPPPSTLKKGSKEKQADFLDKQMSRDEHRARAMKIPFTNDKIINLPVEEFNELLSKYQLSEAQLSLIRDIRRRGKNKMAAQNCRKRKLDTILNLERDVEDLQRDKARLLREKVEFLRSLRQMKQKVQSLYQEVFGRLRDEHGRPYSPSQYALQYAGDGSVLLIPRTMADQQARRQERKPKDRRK
T1 sequence (O54790 1-123, chain 2 of 2): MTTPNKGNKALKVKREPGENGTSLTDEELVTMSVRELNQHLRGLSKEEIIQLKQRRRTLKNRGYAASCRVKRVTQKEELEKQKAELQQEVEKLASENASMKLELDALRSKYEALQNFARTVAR
Experimental: (§3) (A to C) Hepa1 cells were cotransfected with luciferase reporter constructs containing the AREs from the Lipin1 promoter (A), Lipin1 intron (B) or PGC-1β intron (C) together with or without the Nrf1 expression vector. The average values±S.D are shown, n=3. The vertical axis indicates relative luciferase units (RLU). The firefly luciferase activity in the absence of effector plasmids is set to 1. (D) The EMSA analysis was performed with biotin-labeled probes containing the AREs from the Nqo1 promoter, Lipin1 promoter, Lipin1 intron and PGC-1β intron regions. Recombinant MafG and/or Nrf1 or Nrf2 proteins were incubated with the probes, and the protein-DNA complexes and free probes were resolved by electrophoresis. (E) The sequences of the wild-type (W) and mutant (M) oligonucleotides are shown. The mutation sites of the sequences are underlined. (F) Nrf2 and MafG proteins were incubated in combination in the presence or absence of a 200-fold molar excess of unlabeled competitor DNA. The open arrowheads indicate Nrf1/MafG heterodimer complexes, the solid arrowheads indicate Nrf2-MafG heterodimer complexes and the arrows indicate MafG homodimer complexes.
(§4) EMSA was performed in accordance with a method known in the art. […]

MafG 1-123 homodimer = MafG 1-123 homodimer (UniProt O54790 O54790:1-123); assay: EMSA; MafG homodimer; MARE-like site; settings: tags: 6xHis; E. coli; chain copies: 2 (stated); label: 5' biotin (EMSA)
Chain of MafG 1-123 homodimer (O54790 1-123, one chain of several): as the sequence (O54790 1-123, chain 2 of 2) above
Experimental: as §3, §4

[4] = target: T1, Nrf1 CT (G341-K741)/MafG 1-123 …; assay: EMSA; slightly weaker than for Nqo1 ARE; room temperature 20 min; probe boundaries in FIG. 6E may differ from the reporter insert; settings: tags: 6xHis on each; E. coli; label: 5' biotin (EMSA)
Experimental: as §3, §4

| Molecule | luciferase activity compared to solvent [1] | luciferase activity compared to solvent [2] | binding result [3] | binding result (MafG 1-123 homodimer) | binding result [4] |
| --- | --- | --- | --- | --- | --- |
| CC(C)C[C@@H](C=O)NC(=O)[C@H](CC(C)C)NC(=O)[C@H](CC(C)C)NC(=O)OCc1ccccc1 [MG-132] (Cbz-Leu-Leu-Leu-aldehyde) | drastic increase of luciferase activity | drastic increase of luciferase activity | – | – | – |
| B1 | – | – | binds | binds | – |
| B2 | – | – | – | – | binds |
| B3 | – | – | binds | binds | – |
